We go through three variants from publication PMC4358367, “Structural basis of diverse membrane target recognitions by ankyrins” (eLife, 2014).

B1: AnkB_repeats (24 ANK repeats of human 220 kDa ankyrin-B, residues 28–873) [human] / Cav1.3 peptide (mouse Cav1.3 residues 2134–2166), FITC-labeled [modified: FITC label (position not stated); FITC label (position not stated)] [mouse] (parent complex)
chain 1: KSDSNASFLRAARAGNLDKVVEYLKGGIDINTCNQNGLNALHLAAKEGHVGLVQELLGRGSSVDSATKKGNTALHIASLAGQAEVVKVLVKEGANINAQSQNGFTPLYMAAQENHIDVVKYLLENGANQSTATEDGFTPLAVALQQGHNQAVAILLENDTKGKVRLPALHIAARKDDTKSAALLLQNDHNADVQSKMMVNRTTESGFTPLHIAAHYGNVNVATLLLNRGAAVDFTARNGITPLHVASKRGNTNMVKLLLDRGGQIDAKTRDGLTPLHCAARSGHDQVVELLLERGAPLLARTKNGLSPLHMAAQGDHVECVKHLLQHKAPVDDVTLDYLTALHVAAHCGHYRVTKLLLDKRANPNARALNGFTPLHIACKKNRIKVMELLVKYGASIQAITESGLTPIHVAAFMGHLNIVLLLLQNGASPDVTNIRGETALHMAARAGQVEVVRCLLRNGALVDARAREEQTPLHIASRLGKTEIVQLLLQHMAHPDAATTNGYTPLHISAREGQVDVASVLLEAGAAHSLATKKGFTPLHVAAKYGSLDVAKLLLQRRAAADSAGKNGLTPLHVAAHYDNQKVALLLLEKGASPHATAKNGYTPLHIAAKKNQMQIASTLLNYGAETNIVTKQGVTPLHLASQEGHTDMVTLLLDKGANIHMSTKSGLTSLHLAAQEDKVNVADILTKHGADQDAHTKLGYTPLIVACHYGNVKMVNFLLKQGANVNAKTKNGYTPLHQAAQQGHTHIINVLLQHGAKPNATTANGNTALAIAKRLGYISVVDTLKVVTEEVTTTTTTITEKHKLNVPETMTEVLDVSDEEGDDTMTGDGGEYLRPEDLKELGDD
chain 2: ELQDFGPGYSDEEPDPGREEEDLADEMICITTL

The assay covers variants of B1. As to the kind of experiment: fluorescence polarisation; parent: 3.3e+03 nM.
Consider chain 1 F104Q, chain 1 F137Q, for which the Kd came out at 3.3 µM. In the case of chain 1 I240Q, chain 1 L273Q, the Kd was 8.2 µM. Turning to chain 1 L339Q, chain 1 F372Q, chain 1 L405Q, the Kd came to 4 µM.
